Tests used:
[1] = test system: A375 cells overexpressing human HER3; experiment: ADC cytotoxicity, CellTiter-Glo; format: cell-based; settings: Example 21, FIG. 13
[2] = test system: HER3-expressing HCC1569 cells; experiment: ADC cytotoxicity; format: cell-based; settings: FIG. 13
Procedure: (§1) A375 and OVCAR3 cells were seeded in 96-well plates at 5,000 cells per well, and gradient-diluted ADCs (cHE4-G1W-DXd, cHE5-G1W-DXd, cHE7-G1W-DXd, patritumab-DXd, and IgG-DXd) were added. After incubation at 37°C for 5 days, cell viability was measured using CellTiter-Glo (Promega) to evaluate cytotoxicity of the ADCs.
(§2) The cytotoxicity of antibody-drug conjugates based on hHE4-G1W against HER3-expressing HCC1569, A375, and JIMT-1 tumor cells was tested. Antibody-drug conjugates were prepared as described in Example 11. Hydrophobic interaction chromatography indicated the antibody-to-Dxd ratios for cHE4-G1W-DXd, hHE4-G1W-DXd, patritumab-DXd, and negative control IgG-DXd were 1:7, 1:8, 1:7.8, and 1:8, respectively.

[3] = test system: human HER3-overexpressing JIMT-1 cells; experiment: ADC cytotoxicity; format: cell-based; settings: FIG. 13
Procedure: as §1, §2

[4] = test system: HER3-overexpressing A375 cells; experiment: Cell imaging of internalization; format: cell-based; settings: 100 nM, FIG. 11
Procedure: A cell imaging microplate detection system was used to monitor the internalization of hHE4-G1W, hHE4-G1W-DXd, patritumab, and patritumab-DXd after binding to HER3 on the surface of A375 tumor cells. hHE4-G1W, hHE4-G1W-DXd, patritumab, and patritumab-DXd (each 100 nM) were incubated with HER3-overexpressing A375 cells at 4°C for 30 minutes, respectively. Unbound antibodies were removed by washing, and PE-labeled goat anti-human Fc secondary antibody (Jackson) was added. The mixture was incubated at 4°C for 30 minutes, and then the unbound secondary antibody was removed by washing. When the antibodies were bound to the surface of A375 cells and had not yet undergone internalization, these samples were designated as the 0h samples. Fluorescence images were acquired using a Biotek Cytation 1 imaging reader. Cells were then incubated at 37°C for 3 hours and imaged again.

DiFi tumor = experiment: Tumor inhibition in DiFi tumor-bearing mice; format: in vivo, Female SCID mice
Procedure: (§3) The anti-tumor efficacy of hHE4-G1W-DXd and cHE5-G1W-DXd was evaluated in DiFi tumor-bearing mice. Female SCID mice were subcutaneously injected with DiFi cells in the dorsal region to establish the xenograft model. After tumor establishment, mice were randomly divided into nine groups and treated once per week for three weeks. Three groups served as negative controls: one group received PBS, and two groups received IgG-DXd at low dose (3 mg/kg) and high dose (6 mg/kg), respectively. Experimental groups were administered with hHE4-G1W-DXd, cHE5-G1W-DXd, or patritumab-DXd at 3 mg/kg or 6 mg/kg. The average Dxd-to-antibody ratio was 8. Mouse body weights and tumor volumes were measured.

SW620 tumor = experiment: Tumor inhibition in SW620 tumor-bearing mice; format: in vivo, Female SCID mice; settings: for tumor growth: single dose, FIG. 14
Procedure: as §3, with “SW620” for “DiFi”, “with a single dose.” for “once per week for three weeks.”

B1: hHE4-G1W-DXd (conjugate)
heavy: QVQLVESGGGLVKPGGSLRLSCAASGFTFSSYVMSWVRQAPGKGLEWVATISDGDSSTYYADSVKGRFTISRDNAKNSLYLQMNSLRAEDTAVYYCARDKGHGYDEGAFVYWGQGTLVTVSS
light: DIQMTQSPSSLSASVGDRVTITCRASENIYSYLAWYQQKPGKAPKLLIYNAKTLAEGVPSRFSGSGSGTDFTLTISSLQPEDFATYYCQNHYGTPYTFGQGTKLEIKR
modifications: left off: a dimerising Fc or GST
cytotoxicity against A375 cells [1]: significant cytotoxicity | cytotoxicity against HCC1569 cells [2]: significant cytotoxicity | cytotoxicity against JIMT-1 cells [3]: significant cytotoxicity | cytotoxicity compared with patritumab-DXd ([3]; JIMT-1 cells): superior cytotoxicity compared with patritumab-DXd | binding to HER3 on the surface of A375 cells ([4]; 0 hour): bound to HER3 expressed on the cell surface | internalization into A375 cells ([4]; after 3 hours at 37°C): internalized into the A375 cells | tumor inhibition compared with patritumab-DXd (DiFi tumor; low dose of 3 mg/kg, once per week for three weeks): superior tumor inhibition compared with patritumab-DXd | tumor inhibition compared with patritumab-DXd (DiFi tumor; overall conclusion, DiFi): equivalent or improved tumor inhibition against DiFi tumors compared with patritumab-DXd | tumor growth (SW620 tumor; 3 mg/kg): prevented tumor growth | tumor growth (SW620 tumor; 6 mg/kg): complete tumor regression in one mouse | tumor inhibition compared with patritumab-DXd (SW620 tumor; overall conclusion, SW620): superior tumor inhibition against SW620 tumor compared with patritumab-DXd

— patent publication EP4725966A1, “HUMAN EPIDERMAL GROWTH FACTOR 3 ANTIBODY, PREPARATION METHOD THEREFOR, AND USE THEREOF” (priority 2023, dated 2024)
